# Data: patent US20200087400A1 (EUREKA THERAPEUTICS, published 2020)
# B1: PSA146/HLA-A*02:01-specific scFv phage clone #9 (scFv, V domains shown)
# VH: QVQLVQSGAEVKKPGASVKVSCKASGYTFTSYGISWVRQAPGQGLEWMGWISAYNGNTNYAQKLQGRVTMTTDTSTSTAYMELRSLRSDDTAVYYCARSSQYYVWDSWGQGTLVTVSS
# VL: QSVVTQPPSVSGAPGQRVTISCTGSSSNFGAGYDVHWYQQLPGTAPKLLIYGNSNRPSGVPDRFSGSKSGTSASLAITGLQAEDEADYYCQSYDSSLSGWVFGGGTKLTVLG
# B2: PSA146/HLA-A*02:01-specific scFv phage clone #10 (scFv, V domains shown)
# VH: QVQLVQSGAEVKKPGSSVKVSCKASGGTFSSYAISWVRQAPGQGLEWMGWINPNSGGTNYAQKFQGRVTMTRDTSISTAYMELSRLRSDDTAVYYCARWSYYYFQQFWSLDGWGQGTLVTVSS
# VL: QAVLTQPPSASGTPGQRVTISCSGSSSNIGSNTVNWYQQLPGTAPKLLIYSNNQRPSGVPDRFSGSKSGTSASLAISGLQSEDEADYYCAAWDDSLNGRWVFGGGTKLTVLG
# B3: PSA146/HLA-A*02:01-specific scFv phage clone #12 (scFv, V domains shown)
# VH: QMQLVQSGSEVKKPGASVKVSCKASGYTFTSYGISWVRQAPGQGLEWMGWISAYNGNTDYVQKLQGRVTMTTDTSTNTAYMELGSLGSDDTAVYYCARTNYNKYDIWGQGTLVTVSS
# VL: QSVLTQPPSVSGAPGQRVTISCTGSSSNIGAGYDVHWYQQLPGTAPKLLIYGNSNRPSGVPDRFSGSKSGTSASLAITGLQAEDEADYYCQSYDSSLSEVFGTGTKVTVLG
# B4: PSA146/HLA-A*02:01-specific scFv phage clone #13 (scFv, V domains shown)
# VH: QVQLVQSGAEVKKPGASVKVSCKASGYTFTSYYMHWVRQAPGQGLEWMGGFDPEDGETIYAQKFQGRVTMTEDTSTDTAYMGLSSLRSEDTAVYYCARYSYDYWGQGTLVTVSS
# VL: QAVVTQEPSLTVSPGGTVTLTCASSTGAVTSGYYPNWFQQKPGQAPRALIYSTSNKHSWTPARFSGSLLGGKAALTLSGVQPEDEAEYYCLLYYGGAYVFGTGTKVTVLG
# Biological target: T1, Bio-P19 member A2E-3 (chain 2 carries a C-terminal BirA substrate peptide (BSP), enzymatically biotinylated; the BSP letters are not given in the patent and are left out)
# T1 construct: also called biotinylated control peptide A2E-3/HLA-A*02:01 monomer
# Test: phage ELISA, streptavidin plate, anti-M13-HRP
# How it was run: (§1)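 ELISA: clones incubated on streptavidin-captured biotinylated peptide/HLA-A*02:01 complex, detected by HRP-conjugated anti-M13 with absorbance at 450 nm. FACS: T2 cells, unloaded or peptide-loaded with β2M, stained sequentially on ice (30–60 min per step) with scFv phage, anti-M13 and R-PE anti-mouse IgG.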
row,Binder,binding result
1,B1,no binding
2,B2,no binding
3,B3,no binding
4,B4,no binding

# Biological target: T2, Bio-P19 member A2E-2 (chain 2 carries a C-terminal BirA substrate peptide (BSP), enzymatically biotinylated; the BSP letters are not given in the patent and are left out)
# T2 construct: also called biotinylated control peptide A2E-2/HLA-A*02:01 monomer
# Test: phage ELISA, streptavidin plate, anti-M13-HRP
# How it was run: as §1
row,Binder,binding result
1,B1,no binding
2,B2,no binding
3,B3,no binding
4,B4,no binding

# Biological target: T3, Bio-P19 member A2E-23 (chain 2 carries a C-terminal BirA substrate peptide (BSP), enzymatically biotinylated; the BSP letters are not given in the patent and are left out)
# T3 construct: also called biotinylated control peptide A2E-23/HLA-A*02:01 monomer
# Test: phage ELISA, streptavidin plate, anti-M13-HRP
# How it was run: as §1
row,Binder,binding result
1,B1,no binding
2,B2,no binding
3,B3,no binding
4,B4,no binding

# Biological target: T4, control peptide A2E-7/HLA-A*02:01 complex on T2 cells (member of the P19 mixture) (human)
# T4 construct: Loaded on T2 cells as part of the mixture of 19 control peptides
# Test: flow cytometry, phage on T2 cells
# Description: (§2) Individual phage clones from enriched phage display panning pools against PSA146/HLA-A*02:01 complex were incubated in the coated plates. Binding of the phage clones was detected by HRP-conjugated anti-M13 antibodies and developed using HRP substrate. The absorbance was read at 450 nm. […] Then, unique antibody clones were identified through DNA sequencing of ELISA-positive clones. […] T2 cells loaded with different peptides and β2M were first stained with purified scFv phage clones, followed by staining with a mouse anti-M13 mAb, and finally R-PE conjugated horse anti-mouse IgG from Vector Labs. Each step of the staining was performed for between 30-60 minutes on ice and the cells were washed twice between stainings. All 16 clones recognized PSA146-loaded T2 cells specifically. FIG. 3 provides examples of PSA146/HLA-A*02:01 specific phage clone binding to peptide-loaded T2 cells through FACS.
row,Binder,binding result
1,B1,no binding
2,B2,no binding
3,B3,no binding
4,B4,no binding

# Biological target: T5, control peptide A2E-2/HLA-A*02:01 complex on T2 cells (member of the P19 mixture) (human)
# T5 construct: Loaded on T2 cells as part of the mixture of 19 control peptides
# Test: flow cytometry, phage on T2 cells
# Description: as §2
row,Binder,binding result
1,B1,no binding
2,B2,no binding
3,B3,no binding
4,B4,no binding

# Biological target: T6, control peptide A2E-14/HLA-A*02:01 complex on T2 cells (member of the P19 mixture) (human)
# T6 construct: Loaded on T2 cells as part of the mixture of 19 control peptides
# Test: flow cytometry, phage on T2 cells
# Description: as §2
row,Binder,binding result
1,B1,no binding
2,B2,no binding
3,B3,no binding
4,B4,no binding

# Biological target: T7, control peptide A2E-15/HLA-A*02:01 complex on T2 cells (member of the P19 mixture) (human)
# T7 construct: Loaded on T2 cells as part of the mixture of 19 control peptides
# Test: flow cytometry, phage on T2 cells
# Description: as §2
row,Binder,binding result
1,B1,no binding
2,B2,no binding
3,B3,no binding
4,B4,no binding

# Biological target: T8, control peptide A2E-5/HLA-A*02:01 complex on T2 cells (member of the P19 mixture) (human)
# T8 construct: Loaded on T2 cells as part of the mixture of 19 control peptides
# Test: flow cytometry, phage on T2 cells
# Description: as §2
row,Binder,binding result
1,B1,no binding
2,B2,no binding
3,B3,no binding
4,B4,no binding

# Biological target: T9, control peptide A2E-16/HLA-A*02:01 complex on T2 cells (member of the P19 mixture) (human)
# T9 construct: Loaded on T2 cells as part of the mixture of 19 control peptides
# Test: flow cytometry, phage on T2 cells
# Description: as §2
row,Binder,binding result
1,B1,no binding
2,B2,no binding
3,B3,no binding
4,B4,no binding

# Biological target: T10, control peptide A2E-19/HLA-A*02:01 complex on T2 cells (member of the P19 mixture) (human)
# T10 construct: Loaded on T2 cells as part of the mixture of 19 control peptides
# Test: flow cytometry, phage on T2 cells
# Description: as §2
row,Binder,binding result
1,B1,no binding
2,B2,no binding
3,B3,no binding
4,B4,no binding

# Biological target: T11, control peptide A2E-8/HLA-A*02:01 complex on T2 cells (member of the P19 mixture) (human)
# T11 construct: Loaded on T2 cells as part of the mixture of 19 control peptides
# Test: flow cytometry, phage on T2 cells
# Description: as §2
row,Binder,binding result
1,B1,no binding
2,B2,no binding
3,B3,no binding
4,B4,no binding

# Biological target: T12, control peptide A2E-23/HLA-A*02:01 complex on T2 cells (member of the P19 mixture) (human)
# T12 construct: Loaded on T2 cells as part of the mixture of 19 control peptides
# Test: flow cytometry, phage on T2 cells
# Description: as §2
row,Binder,binding result
1,B1,no binding
2,B2,no binding
3,B3,no binding
4,B4,no binding

# Biological target: T13, control peptide A2E-6/HLA-A*02:01 complex on T2 cells (member of the P19 mixture) (human)
# T13 construct: Loaded on T2 cells as part of the mixture of 19 control peptides
# Test: flow cytometry, phage on T2 cells
# Description: as §2
row,Binder,binding result
1,B1,no binding
2,B2,no binding
3,B3,no binding
4,B4,no binding

# Biological target: T14, control peptide A2E-1/HLA-A*02:01 complex on T2 cells (member of the P19 mixture) (human)
# T14 construct: Loaded on T2 cells as part of the mixture of 19 control peptides
# Test: flow cytometry, phage on T2 cells
# Description: as §2
row,Binder,binding result
1,B1,no binding
2,B2,no binding
3,B3,no binding
4,B4,no binding

# Biological target: T15, control peptide A2E-4/HLA-A*02:01 complex on T2 cells (member of the P19 mixture) (human)
# T15 construct: Loaded on T2 cells as part of the mixture of 19 control peptides
# Test: flow cytometry, phage on T2 cells
# Description: as §2
row,Binder,binding result
1,B1,no binding
2,B2,no binding
3,B3,no binding
4,B4,no binding

# Biological target: T16, control peptide A2E-13/HLA-A*02:01 complex on T2 cells (member of the P19 mixture) (human)
# T16 construct: Loaded on T2 cells as part of the mixture of 19 control peptides
# Test: flow cytometry, phage on T2 cells
# Description: as §2
row,Binder,binding result
1,B1,no binding
2,B2,no binding
3,B3,no binding
4,B4,no binding

# Biological target: T17, control peptide A2E-10/HLA-A*02:01 complex on T2 cells (member of the P19 mixture) (human)
# T17 construct: Loaded on T2 cells as part of the mixture of 19 control peptides
# Test: flow cytometry, phage on T2 cells
# Description: as §2
row,Binder,binding result
1,B1,no binding
2,B2,no binding
3,B3,no binding
4,B4,no binding

# Biological target: T18, control peptide A2E-11/HLA-A*02:01 complex on T2 cells (member of the P19 mixture) (human)
# T18 construct: Loaded on T2 cells as part of the mixture of 19 control peptides
# Test: flow cytometry, phage on T2 cells
# Description: as §2
row,Binder,binding result
1,B1,no binding
2,B2,no binding
3,B3,no binding
4,B4,no binding

# Biological target: T19, control peptide A2E-17/HLA-A*02:01 complex on T2 cells (member of the P19 mixture) (human)
# T19 construct: Loaded on T2 cells as part of the mixture of 19 control peptides
# Test: flow cytometry, phage on T2 cells
# Description: as §2
row,Binder,binding result
1,B1,no binding
2,B2,no binding
3,B3,no binding
4,B4,no binding

# Biological target: T20, control peptide A2E-9/HLA-A*02:01 complex on T2 cells (member of the P19 mixture) (human)
# T20 construct: Loaded on T2 cells as part of the mixture of 19 control peptides
# Test: flow cytometry, phage on T2 cells
# Description: as §2
row,Binder,binding result
1,B1,no binding
2,B2,no binding
3,B3,no binding
4,B4,no binding

# Biological target: T21, control peptide A2E-21/HLA-A*02:01 complex on T2 cells (member of the P19 mixture) (human)
# T21 construct: Loaded on T2 cells as part of the mixture of 19 control peptides
# Test: flow cytometry, phage on T2 cells
# Description: as §2
row,Binder,binding result
1,B1,no binding
2,B2,no binding
3,B3,no binding
4,B4,no binding

# Biological target: T22, control peptide A2E-3/HLA-A*02:01 complex on T2 cells (member of the P19 mixture) (human)
# T22 construct: Loaded on T2 cells as part of the mixture of 19 control peptides
# Test: flow cytometry, phage on T2 cells
# Description: as §2
row,Binder,binding result
1,B1,no binding
2,B2,no binding
3,B3,no binding
4,B4,no binding

# Biological target: T23, PSA 146-154 peptide/HLA-A*02:01 complex on the cell surface (human)
# T23 construct: also called PSA146/HLA-A*02:01; PSA146-loaded T2 cells
# Test: flow cytometry, phage on T2 cells, anti-M13 + R-PE anti-mouse IgG
# How it was run: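 T2 cells + peptide + β2M → purified scFv phage → mouse anti-M13 mAb → R-PE anti-mouse IgG; each step 30-60 min on ice, two washes between. ELISA: phage clones on coated plate, HRP anti-M13, A450.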
row,Binder,binding result
1,B1,binds
2,B2,binds
3,B3,binds
4,B4,binds
